Target: GST-GATA1 (UniProt P15976 1-413)
Assay: EMSA; GATA1 antibody used for supershift; Pull-down: probes immobilised on M-280 beads in 5 mM Tris-HCl pH 7.5, 0.5 mM EDTA, 1 M NaCl; 100 ug nuclear extract; washes in binding buffer (composition not given) with 0.5% NP40. EMSA as described previously (ref. 9); temperature not stated
Details: protein: commercial; tags: GST; label: 5'-biotin; blunt

GST-GATA1, sequence (P15976 whole entry): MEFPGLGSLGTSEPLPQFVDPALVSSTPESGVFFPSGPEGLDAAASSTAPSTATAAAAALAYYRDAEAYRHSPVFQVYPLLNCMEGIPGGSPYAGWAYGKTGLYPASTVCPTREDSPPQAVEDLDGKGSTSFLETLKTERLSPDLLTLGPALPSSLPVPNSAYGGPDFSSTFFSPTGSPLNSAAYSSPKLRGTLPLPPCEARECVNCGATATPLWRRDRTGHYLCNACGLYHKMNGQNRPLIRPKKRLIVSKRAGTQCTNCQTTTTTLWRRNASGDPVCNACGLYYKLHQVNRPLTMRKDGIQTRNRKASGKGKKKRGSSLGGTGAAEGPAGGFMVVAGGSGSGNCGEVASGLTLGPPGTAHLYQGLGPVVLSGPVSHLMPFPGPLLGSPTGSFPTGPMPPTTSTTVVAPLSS

B1: GATA1/2 WT probe (dsDNA)
DNA 1: CTGCCGCCGATTGGTGCTCGC
DNA 2: GCGAGCACCAATCGGCGGCAG
binding result: binds

Reference: PMC5946489, “Inactivation of the tight junction gene CLDN11 by aberrant hypermethylation modulates tubulins polymerization and promotes cell migration in nasopharyngeal carcinoma”
